Data as given in paper doi:10.1101/2023.12.18.572142 (bioRxiv, 2023).
Like-named read-outs stand apart in the source and are kept apart here. Values belong to the molecule of their own block, whether it stands above or below them.

How the values were obtained:
Assay in all cases: SPR
cat Fcμ–J complex (cat) = target: cat Fcμ–J complex (cat)
mouse Fcμ–J complex = target: T1, mouse Fcμ–J complex (mouse, UniProt P01872 104-454; P01592 22-159)
T1 sequence (looked up) 1: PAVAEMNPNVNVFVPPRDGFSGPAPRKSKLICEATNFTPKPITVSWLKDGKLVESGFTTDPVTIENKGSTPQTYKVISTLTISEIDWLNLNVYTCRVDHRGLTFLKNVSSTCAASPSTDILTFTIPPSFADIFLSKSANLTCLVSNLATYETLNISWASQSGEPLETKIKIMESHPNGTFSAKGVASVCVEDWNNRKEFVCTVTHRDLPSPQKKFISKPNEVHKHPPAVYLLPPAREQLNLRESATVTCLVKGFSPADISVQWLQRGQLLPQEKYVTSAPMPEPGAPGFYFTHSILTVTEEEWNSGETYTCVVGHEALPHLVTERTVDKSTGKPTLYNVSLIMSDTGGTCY
T1 sequence (looked up) 2: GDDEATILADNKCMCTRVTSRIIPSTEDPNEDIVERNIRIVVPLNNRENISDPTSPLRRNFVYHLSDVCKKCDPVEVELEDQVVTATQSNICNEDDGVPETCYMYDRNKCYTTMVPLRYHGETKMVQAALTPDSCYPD

[1] = target: T2, human Fcμ–J complex (pentameric IgM core: IgM-Fc pentamer and J chain) (human, UniProt P01871-1 106-453; P01591 23-159)
[2] = target: T2, human Fcμ–J complex (pentameric IgM …); remark: listed apart in the source
[3] = target: T2, human Fcμ–J complex (pentameric IgM …); remark: listed apart in the source

Kd (mouse Fcμ–J complex): 5 nM
B1: mouse CD5L (natural protein, UniProt Q9QWK4 22-352, looked up)
chain: ESPTKVQLVGGAHRCEGRVEVEHNGQWGTVCDDGWDRRDVAVVCRELNCGAVIQTPRGASYQPPASEQRVLIQGVDCNGTEDTLAQCELNYDVFDCSHEEDAGAQCENPDSDLLFIPEDVRLVDGPGHCQGRVEVLHQSQWSTVCKAGWNLQVSKVVCRQLGCGRALLTYGSCNKNTQGKGPIWMGKMSCSGQEANLRSCLLSRLENNCTHGEDTWMECEDPFELKLVGGDTPCSGRLEVLHKGSWGSVCDDNWGEKEDQVVCKQLGCGKSLHPSPKTRKIYGPGAGRIWLDDVNCSGKEQSLEFCRHRLWGYHDCTHKEDVEVICTDFDV

Kd [1]: 30 nM
B2: human CD5L (CD5 antigen-like) (natural protein, UniProt O43866 20-347, looked up)
chain: SPSGVRLVGGLHRCEGRVEVEQKGQWGTVCDDGWDIKDVAVLCRELGCGAASGTPSGILYEPPAEKEQKVLIQSVSCTGTEDTLAQCEQEEVYDCSHDEDAGASCENPESSFSPVPEGVRLADGPGHCKGRVEVKHQNQWYTVCQTGWSLRAAKVVCRQLGCGRAVLTQKRCNKHAYGRKPIWLSQMSCSGREATLQDCPSGPWGKNTCNHDEDTWVECEDPFDLRLVGGDNLCSGRLEVLHKGVWGSVCDDNWGEKEDQVVCKQLGCGKSLSPSFRDRKCYGPGVGRIWLDNVRCSGEEQSLEQCQHRFWGFHDCTHQEDVAVICSG

The remaining lines, values behind:

Molecule: cat CD5L (3-SRCR isoform) (from UniProt A0A1E1GEY0 20-355) (natural protein)
Kd (cat Fcμ–J complex (cat)): 11 nM

B3: D1 domain of FcμR (domain or fragment, human)
chain: RILPEVKVEGELGGSVTIKCPLPEMHVRIYLCREMAGSGTCGTVVSTTNFIKAEYKGRVTLKQYPRKNLFLVEVTQLTESDSGVYACGAGMNTDRGKTQKVTLNVHS
Kd [2]: 7.2 nM
Kd [3]: 0.3 nM
